Reference: paper PMC6681339, “CoCUN, a Novel Ubiquitin Binding Domain Identified in N4BP1” (Biomolecules, 2019)
No end group written: not given here.

Assays:
[1] = target: T1, ubiquitin (UniProt P0CG48 1-76, 15N labelled in the complementary NMR experiment; unlabelled otherwise); test: ITC; 2.78 mM N4BP1 (847-896) titrated to 200 µM ubiquitin in the cell; 20 mM Tris-HCl pH 8.0, 150 mM NaCl, 5% glycerol; room temperature; one-site binding model; conditions: both partners purified
T1 construct: the model of the complex used the ubiquitin structure PDB 1D3Z and BMRB 6457; also called monoubiquitin; UBQ

[2] = target: T1, ubiquitin; test: ITC; 3.3 mM ubiquitin titrated to 246 µM N4BP1 (847-896) in the cell; 20 mM Tris-HCl pH 8.0, 150 mM NaCl, 5% glycerol; room temperature; one-site binding model; conditions: both partners purified

Kd [1]: 61.8 ± 5.2 µM
dH [1]: -13 ± 0.4 kJ/mol
Kd [2]: 49.7 ± 3.6 µM
B1: CoCUN domain of N4BP1 (aa 847–896), purified polypeptide (domain or fragment, human, UniProt O75113 847-896, looked up)
chain: AQRSSAETNELREALLKIFPDSEQRLKIDQILVAHPYMKDLNALSAMVLD
modifications: also: 15N isotopic labelling
notes: also called Cousin of CUBAN; N4BP1 UBD; source: bacterial expression (protocol for NMR sample preparation), purified
